Results on 6 molecules are retold here after PMC10011603, “TRAK adaptors regulate the recruitment and activation of dynein and kinesin in mitochondrial transport” (Nature Communications, 2023).

Assay [1] deals with T1, full-length human kinesin-1 heavy chain (KIF5B-GFP-SNAPf) (human, UniProt P33176 1-963, fluorescent dye in motility assays (LD555-kinesin, Alexa488-kinesin)).
T1 construct: kinesin-1 heavy chain KIF5B, human, amino acids 1-963, full length; source: baculovirus-infected SF9 cells, purified (IgG Sepharose, TEV protease); not shown: His6-ZZ, N-terminal, cleaved; GFP, C-terminal, kept; SNAPf, C-terminal, kept
T1 sequence (looked up): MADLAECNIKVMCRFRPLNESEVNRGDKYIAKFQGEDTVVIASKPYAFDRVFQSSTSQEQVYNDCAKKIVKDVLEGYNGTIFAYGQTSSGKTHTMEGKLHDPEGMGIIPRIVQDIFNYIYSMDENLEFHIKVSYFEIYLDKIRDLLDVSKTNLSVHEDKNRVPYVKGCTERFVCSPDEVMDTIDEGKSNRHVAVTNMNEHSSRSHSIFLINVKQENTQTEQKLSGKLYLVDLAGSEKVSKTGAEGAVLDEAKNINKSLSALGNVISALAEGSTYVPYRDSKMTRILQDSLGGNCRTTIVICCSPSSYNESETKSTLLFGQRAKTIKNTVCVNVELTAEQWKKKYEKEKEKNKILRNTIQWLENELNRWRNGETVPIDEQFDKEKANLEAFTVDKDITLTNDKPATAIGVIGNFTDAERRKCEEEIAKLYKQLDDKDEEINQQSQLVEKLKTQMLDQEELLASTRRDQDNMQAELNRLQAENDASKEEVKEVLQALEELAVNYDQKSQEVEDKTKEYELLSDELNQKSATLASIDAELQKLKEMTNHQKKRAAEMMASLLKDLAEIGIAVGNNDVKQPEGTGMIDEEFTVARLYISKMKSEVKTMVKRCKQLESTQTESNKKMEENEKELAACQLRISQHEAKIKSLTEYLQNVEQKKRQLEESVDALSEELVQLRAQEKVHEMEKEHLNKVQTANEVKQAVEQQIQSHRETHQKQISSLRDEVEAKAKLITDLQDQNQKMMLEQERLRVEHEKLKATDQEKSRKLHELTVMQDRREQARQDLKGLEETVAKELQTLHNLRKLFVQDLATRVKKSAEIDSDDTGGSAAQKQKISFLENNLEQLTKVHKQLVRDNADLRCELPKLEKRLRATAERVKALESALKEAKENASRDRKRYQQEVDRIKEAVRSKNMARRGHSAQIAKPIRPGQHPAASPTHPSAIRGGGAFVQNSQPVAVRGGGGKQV
Briefly: single-molecule TIRF colocalisation on microtubules; two-colour imaging of labeled kinesin and labeled TRAK constructs on surface-immobilized MTs, 0-50 nM MAP7, 1 mM Mg·ATP; also with 2 mM Ca2+. The conditions noted are these: both partners purified.

The target in assay [2] is T1, full-length human kinesin-1 heavy chain …. Kind of assay: single-molecule TIRF colocalisation on microtubules; three-colour imaging of Alexa488-KIF5B, LD555-TRAK1 1-532 (or full-length TRAK1) and LD655-Miro1 1-592; 10 nM MAP7; 0, 0.1 and 2 mM Ca2+. The conditions noted are these: both partners purified.
The target in assay [3] is T2, Miro1^1–592 (Miro1^1–592-SNAP-psc-StrepII) (human, UniProt Q8IXI2 1-592, LD655 dye on the SNAP tag in motility assays).
T2 construct: mitochondrial Rho GTPase 1 (Miro1), human, residues 1-592, lacks the transmembrane domain; A PreScission site (psc) stands between SNAP and StrepII; no cleavage is told; also called Miro1^1–592-StrepII; Miro1^1–592-SNAPf-StrepII; source: purified (Streptactin Sepharose, eluted with desthiobiotin); not shown: SNAP, C-terminal, kept; StrepII, C-terminal, kept
The assay is described as above. The conditions noted are these: both partners purified.

Assay [4] addresses T1, full-length human kinesin-1 heavy chain …. Kind of assay: cell-based or functional assay.

T2 sequence (Q8IXI2 1-592): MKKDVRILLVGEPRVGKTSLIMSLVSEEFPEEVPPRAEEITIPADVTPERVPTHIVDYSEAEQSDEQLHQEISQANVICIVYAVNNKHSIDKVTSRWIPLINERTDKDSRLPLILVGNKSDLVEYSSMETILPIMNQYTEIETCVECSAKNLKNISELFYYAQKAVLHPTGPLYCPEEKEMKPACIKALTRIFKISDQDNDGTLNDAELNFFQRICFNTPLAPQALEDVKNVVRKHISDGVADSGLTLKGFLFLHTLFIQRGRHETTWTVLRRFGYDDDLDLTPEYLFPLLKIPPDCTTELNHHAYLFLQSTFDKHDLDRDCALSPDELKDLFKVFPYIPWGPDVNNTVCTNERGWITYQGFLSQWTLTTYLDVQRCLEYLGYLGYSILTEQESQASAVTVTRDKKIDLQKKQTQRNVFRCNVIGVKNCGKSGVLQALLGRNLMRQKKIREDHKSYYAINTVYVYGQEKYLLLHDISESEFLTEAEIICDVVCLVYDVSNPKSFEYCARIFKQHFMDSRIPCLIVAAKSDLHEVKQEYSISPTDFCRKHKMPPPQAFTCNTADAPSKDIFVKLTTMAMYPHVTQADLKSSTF

B1: full-length TRAK2 (TRAK2^1–914) (natural protein, human, UniProt O60296 1-914, looked up)
chain: MSQSQNAIFTSPTGEENLMNSNHRDSESITDVCSNEDLPEVELVSLLEEQLPQYRLKVDTLFLYENQDWTQSPHQRQHASDALSPVLAEETFRYMILGTDRVEQMTKTYNDIDMVTHLLAERDRDLELAARIGQALLKRNHVLSEQNESLEEQLGQAFDQVNQLQHELCKKDELLRIVSIASEESETDSSCSTPLRFNESFSLSQGLLQLEMLQEKLKELEEENMALRSKACHIKTETVTYEEKEQQLVSDCVKELRETNAQMSRMTEELSGKSDELIRYQEELSSLLSQIVDLQHKLKEHVIEKEELKLHLQASKDAQRQLTMELHELQDRNMECLGMLHESQEEIKELRSRSGPTAHLYFSQSYGAFTGESLAAEIEGTMRKKLSLDEESSLFKQKAQQKRVFDTVRIANDTRGRSISFPALLPIPGSNRSSVIMTAKPFESGLQQTEDKSLLNQGSSSEEVAGSSQKMGQPGPSGDSDLATALHRLSLRRQNYLSEKQFFAEEWQRKIQVLADQKEGVSGCVTPTESLASLCTTQSEITDLSSASCLRGFMPEKLQIVKPLEGSQTLYHWQQLAQPNLGTILDPRPGVITKGFTQLPGDAIYHISDLEEDEEEGITFQVQQPLEVEEKLSTSKPVTGIFLPPITSAGGPVTVATANPGKCLSCTNSTFTFTTCRILHPSDITQVTPSSGFPSLSCGSSGSSSSNTAVNSPALSYRLSIGESITNRRDSTTTFSSTMSLAKLLQERGISAKVYHSPISENPLQPLPKSLAIPSTPPNSPSHSPCPSPLPFEPRVHLSENFLASRPAETFLQEMYGLRPSRNPPDVGQLKMNLVDRLKRLGIARVVKNPGAQENGRCQEAEIGPQKPDSAVYLNSGSSLLGGLRRNQSLPVIMGSFAAPVCTSSPKMGVLKED
notes: TRAK2, human, residues 1-914, full length; source: HEK 293 F GNTI-/- cells, PEI transfection, purified (TRAK purification procedure); not shown: His6-ZZ, N-terminal, cleaved; SNAP-tag or GFP, C-terminal, kept
Consider B1, for which the binding result in assay [1] is “binds”.

B2: TRAK1^1–400 (domain or fragment, human, UniProt Q9UPV9 1-400, looked up)
chain: MALVFQFGQPVRAQPLPGLCHGKLIRTNACDVCNSTDLPEVEIISLLEEQLPHYKLRADTIYGYDHDDWLHTPLISPDANIDLTTEQIEETLKYFLLCAERVGQMTKTYNDIDAVTRLLEEKERDLELAARIGQSLLKKNKTLTERNELLEEQVEHIREEVSQLRHELSMKDELLQFYTSAAEESEPESVCSTPLKRNESSSSVQNYFHLDSLQKKLKDLEEENVVLRSEASQLKTETITYEEKEQQLVNDCVKELRDANVQIASISEELAKKTEDAARQQEEITHLLSQIVDLQKKAKACAVENEELVQHLGAAKDAQRQLTAELRELEDKYAECMEMLHEAQEELKNLRNKTMPNTTSRRYHSLGLFPMDSLAAEIEGTMRKELQLEEAESPDITHQK
modifications: LD555 or LD655 dye on the SNAP-tag in motility assays
notes: TRAK1, human, residues 1-400; full length printed as 1-953; also called T1^1–400; N-terminal coiled coil of TRAK1 with CC1 box and Spindly motif; source: baculovirus-infected SF9 cells, purified (IgG Sepharose, TEV protease); not shown: His6-ZZ, N-terminal, cleaved; SNAP-tag or GFP, C-terminal, kept
With B2, the binding result in assay [1] is on record as “binds”.

B3: full-length TRAK1 (TRAK1^1–953) (natural protein, human, UniProt Q9UPV9 1-953, looked up)
chain: MALVFQFGQPVRAQPLPGLCHGKLIRTNACDVCNSTDLPEVEIISLLEEQLPHYKLRADTIYGYDHDDWLHTPLISPDANIDLTTEQIEETLKYFLLCAERVGQMTKTYNDIDAVTRLLEEKERDLELAARIGQSLLKKNKTLTERNELLEEQVEHIREEVSQLRHELSMKDELLQFYTSAAEESEPESVCSTPLKRNESSSSVQNYFHLDSLQKKLKDLEEENVVLRSEASQLKTETITYEEKEQQLVNDCVKELRDANVQIASISEELAKKTEDAARQQEEITHLLSQIVDLQKKAKACAVENEELVQHLGAAKDAQRQLTAELRELEDKYAECMEMLHEAQEELKNLRNKTMPNTTSRRYHSLGLFPMDSLAAEIEGTMRKELQLEEAESPDITHQKRVFETVRNINQVVKQRSLTPSPMNIPGSNQSSAMNSLLSSCVSTPRSSFYGSDIGNVVLDNKTNSIILETEAADLGNDERSKKPGTPGTPGSHDLETALRRLSLRRENYLSERRFFEEEQERKLQELAEKGELRSGSLTPTESIMSLGTHSRFSEFTGFSGMSFSSRSYLPEKLQIVKPLEGSATLHHWQQLAQPHLGGILDPRPGVVTKGFRTLDVDLDEVYCLNDFEEDDTGDHISLPRLATSTPVQHPETSAHHPGKCMSQTNSTFTFTTCRILHPSDELTRVTPSLNSAPTPACGSTSHLKSTPVATPCTPRRLSLAESFTNTRESTTTMSTSLGLVWLLKERGISAAVYDPQSWDRAGRGSLLHSYTPKMAVIPSTPPNSPMQTPTSSPPSFEFKCTSPPYDNFLASKPASSILREVREKNVRSSESQTDVSVSNLNLVDKVRRFGVAKVVNSGRAHVPTLTEEQGPLLCGPPGPAPALVPRGLVPEGLPLRCPTVTSAIGGLQLNSGIRRNRSFPTMVGSSMQMKAPVTLTSGILMGAKLSKQTSLR
notes: TRAK1, human, residues 1-953, full length; source: HEK 293 F GNTI-/- cells, PEI transfection, purified (TRAK purification procedure); not shown: His6-ZZ, N-terminal, cleaved; SNAP-tag or GFP, C-terminal, kept
For the molecule B3, the binding result in assay [1] is on record as “binds”.

B4: TRAK1^1–532 (domain or fragment, human, UniProt Q9UPV9 1-532, looked up)
chain: MALVFQFGQPVRAQPLPGLCHGKLIRTNACDVCNSTDLPEVEIISLLEEQLPHYKLRADTIYGYDHDDWLHTPLISPDANIDLTTEQIEETLKYFLLCAERVGQMTKTYNDIDAVTRLLEEKERDLELAARIGQSLLKKNKTLTERNELLEEQVEHIREEVSQLRHELSMKDELLQFYTSAAEESEPESVCSTPLKRNESSSSVQNYFHLDSLQKKLKDLEEENVVLRSEASQLKTETITYEEKEQQLVNDCVKELRDANVQIASISEELAKKTEDAARQQEEITHLLSQIVDLQKKAKACAVENEELVQHLGAAKDAQRQLTAELRELEDKYAECMEMLHEAQEELKNLRNKTMPNTTSRRYHSLGLFPMDSLAAEIEGTMRKELQLEEAESPDITHQKRVFETVRNINQVVKQRSLTPSPMNIPGSNQSSAMNSLLSSCVSTPRSSFYGSDIGNVVLDNKTNSIILETEAADLGNDERSKKPGTPGTPGSHDLETALRRLSLRRENYLSERRFFEEEQERKLQELAEKGE
modifications: LD555 dye on the SNAP-tag in motility assays
notes: full length printed as 1-953; also called TRAK1 construct containing the coiled coils and part of the C-terminal domain; source: baculovirus-infected SF9 cells, purified (IgG Sepharose, TEV protease); not shown: His6-ZZ, N-terminal, cleaved; SNAP-tag or GFP, C-terminal, kept
As for B4, the binding result in assay [2] and in assay [3] was “binds” each time.

B5: TRAK2^1–400 (domain or fragment, human, UniProt O60296 1-400, looked up)
chain: MSQSQNAIFTSPTGEENLMNSNHRDSESITDVCSNEDLPEVELVSLLEEQLPQYRLKVDTLFLYENQDWTQSPHQRQHASDALSPVLAEETFRYMILGTDRVEQMTKTYNDIDMVTHLLAERDRDLELAARIGQALLKRNHVLSEQNESLEEQLGQAFDQVNQLQHELCKKDELLRIVSIASEESETDSSCSTPLRFNESFSLSQGLLQLEMLQEKLKELEEENMALRSKACHIKTETVTYEEKEQQLVSDCVKELRETNAQMSRMTEELSGKSDELIRYQEELSSLLSQIVDLQHKLKEHVIEKEELKLHLQASKDAQRQLTMELHELQDRNMECLGMLHESQEEIKELRSRSGPTAHLYFSQSYGAFTGESLAAEIEGTMRKKLSLDEESSLFKQKAQ
modifications: LD555 or LD655 dye on the SNAP-tag in motility assays
notes: TRAK2, human, residues 1-400; full length printed as 1-914; also called T2^1–400; N-terminal coiled coil of TRAK2 with CC1 box and Spindly motif; source: baculovirus-infected SF9 cells, purified (IgG Sepharose, TEV protease); not shown: His6-ZZ, N-terminal, cleaved; SNAP-tag or GFP, C-terminal, kept
As for B5, in assay [1], the binding result was “binds”.

B6: TRAK1^1–360 (domain or fragment, human, UniProt Q9UPV9 1-360, looked up)
chain: MALVFQFGQPVRAQPLPGLCHGKLIRTNACDVCNSTDLPEVEIISLLEEQLPHYKLRADTIYGYDHDDWLHTPLISPDANIDLTTEQIEETLKYFLLCAERVGQMTKTYNDIDAVTRLLEEKERDLELAARIGQSLLKKNKTLTERNELLEEQVEHIREEVSQLRHELSMKDELLQFYTSAAEESEPESVCSTPLKRNESSSSVQNYFHLDSLQKKLKDLEEENVVLRSEASQLKTETITYEEKEQQLVNDCVKELRDANVQIASISEELAKKTEDAARQQEEITHLLSQIVDLQKKAKACAVENEELVQHLGAAKDAQRQLTAELRELEDKYAECMEMLHEAQEELKNLRNKTMPNTTS
modifications: LD555 or LD655 dye on the SNAP-tag in motility assays
In the case of B6, in assay [4], the “kinesin landing rate on MTs in the presence of MAP7, 5-20 nM TRAK1 1-360 against no TRAK” value came to 5 fold.
